Measured values reported in article PMC12743511, “HSD17β11 regulates PLIN5-ATGL mediated lipolysis, but not hepatic lipid metabolism in mice” (Journal of Lipid Research, 2025).

Target: T1, PLIN5-CFP (perilipin 5 fused to CFP) (UniProt Q00G26 1-463)
T1 construct: perilipin 5 (PLIN5); FRET donor; source: transiently transfected (Lipofectamine 3000), in live cells
T1 sequence (looked up): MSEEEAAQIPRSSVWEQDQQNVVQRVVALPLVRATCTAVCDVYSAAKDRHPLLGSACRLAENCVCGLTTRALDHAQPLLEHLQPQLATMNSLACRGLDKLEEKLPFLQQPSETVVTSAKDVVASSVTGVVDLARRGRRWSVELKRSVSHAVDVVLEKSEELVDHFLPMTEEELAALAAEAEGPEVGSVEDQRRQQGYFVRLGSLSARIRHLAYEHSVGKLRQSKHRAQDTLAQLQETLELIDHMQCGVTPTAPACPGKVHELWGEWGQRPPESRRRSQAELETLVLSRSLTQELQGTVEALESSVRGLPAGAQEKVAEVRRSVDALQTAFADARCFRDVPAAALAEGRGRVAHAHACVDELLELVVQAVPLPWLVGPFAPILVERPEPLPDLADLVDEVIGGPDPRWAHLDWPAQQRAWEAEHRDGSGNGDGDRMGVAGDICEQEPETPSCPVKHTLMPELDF
Assay: FRET or BRET; FLIM-FRET with phasor analysis in live transfected cells, CFP donor and YFP acceptor, 37°C, 5% CO2; basal and forskolin (PKA) stimulated; ATGL-CFP with PLIN5-YFP in WT and HSD^KO cells; read-out FRET ratio (pixels with FRET / pixels without)
Settings: partners not purified

fold increase in FRET ratio over donor alone: 2.5 fold
B1: HSD17β11-YFP (hydroxysteroid 17β dehydrogenase 11 fused to YFP) (natural protein, UniProt Q8NBQ5 1-300, looked up)
chain: MKFLLDILLLLPLLIVCSLESFVKLFIPKRRKSVTGEIVLITGAGHGIGRLTAYEFAKLKSKLVLWDINKHGLEETAAKCKGLGAKVHTFVVDCSNREDIYSSAKKVKAEIGDVSILVNNAGVVYTSDLFATQDPQIEKTFEVNVLAHFWTTKAFLPAMTKNNHGHIVTVASAAGHVSVPFLLAYCSSKFAAVGFHKTLTDELAALQITGVKTTCLCPNFVNTGFIKNPSTSLGPTLEPEEVVNRLMHGILTEQKMIFIPSSIAFLTTLERILPERFLAVLKRKISVKFDAVIGYKMKAQ
notes: hydroxysteroid 17β dehydrogenase 11 (HSD17β11), wild type; FRET acceptor; also called HSD^WT-YFP; source: transiently transfected (Lipofectamine 3000), in live cells
